Key:
[1] = molecular target: human FGFR1c plus KLB (Homo sapiens, UniProt P11362+Q86Z14); assay: FGF-21 receptor autophosphorylation In-Cell Western (pFGFR ICW) in CHO cells; format: cell-based; conditions: CHO cells overexpressing human FGFR1c plus KLB, FGFR autophosphorylation
Procedure: FIG. 1B-1 to FIG. 1B-4) The FGF induced FGFR autophosphorylation was measured via a specific and highly sensitive In-Cell Western (ICW) in CHO cells stably overexpressing human FGFR1c together with human betaKlotho (KLB). In-Cell Western assay is an immunocytochemical assay usually performed in microplate format. Target-specific primary antibodies and infrared-labelled secondary antibodies are used to detect target proteins in fixed cells, and fluorescent signal from each well is quantified (e.g. the In-Cell Western assay from LI-COR Biosciences, USA).
The cellular efficacy of FGF-21 or FGF-21 fusion proteins was measured using a specific and highly sensitive In-Cell Western (ICW) assay. The ICW assay is an immunocytochemical assay usually performed in microplate format.
(§1) CHO Flp-In cells (Invitrogen, Darmstadt, Germany) stable expressing the human FGFR1c together with human beta-Klotho (KLB) were used for FGF-21 receptor autophosphorylation assay using In-Cell Western. In order to determine the receptor autophosphorylation level, 2×10^4 cells/well were seeded into 96-well plates and grown for 48 h. Cells were serum starved with serum-free medium Ham's F-12 Nutrient Mix with GlutaMAX (Gibco, Darmstadt, Germany) for 3-4 h. The cells were subsequently treated with increasing concentrations of either human FGF-21, the indicated FGF-21 fusion protein, or other peptides for 5 min at 37° C. After incubation the medium was discarded and the cells were fixed in 3.7% freshly prepared para-formaldehyde for 20 min. Cells were permeabilized with 0.1% Triton-X-100 in PBS for 20 min. Blocking was performed with Odyssey blocking buffer (LICOR, Bad Homburg, Germany) for 2 h at room temperature. Anti-pFGFR Tyr653/654 (New England Biolabs, Frankfurt, Germany) was incubated overnight at 4° C. After incubation of the primary antibody, cells were washed with PBS+0.1% Tween20. The secondary anti-Mouse 800CW antibody (LICOR, Bad Homburg, Germany) was incubated for 1 h at room temperature. Subsequently cells were washed again with PBS+0.1% Tween20 and infrared dye signals were quantified with an Odyssey imager (LICOR, Bad Homburg, Germany). Results were normalized by quantification of DNA with TO-PRO3 dye (Invitrogen, Karlsruhe, Germany). FIG. 1B-1 to FIG. 1B-4 show the results from an ICW with CHO cells overexpressing human FGFR1c plus KLB.

[2] = molecular target: T1, human GLP-1 receptor (Homo sapiens, UniProt P43220); assay: In vitro cellular assay for human GLP-1 receptor efficacy (cAMP HTRF, HEK-293); format: cell-based; conditions: HEK-293 cells stably expressing human GLP-1 receptor, read-out: hGLP-1R cAMP EC50
T1 construct: expressed in transfected cells
Procedure: The cAMP content of the cells was determined using a kit from Cisbio Corp. (cat. no. 62AM4PEC) based on HTRF (Homogenous Time Resolved Fluorescence).
The cAMP content of cells was determined using a kit from Cisbio Corp. (cat. no. 62AM4PEC) based on HTRF (Homogenous Time Resolved Fluorescence). For preparation, cells were split into T175 culture flasks and grown overnight to near confluence in medium (DMEM/10% FBS). Medium was then removed and cells washed with PBS lacking calcium and magnesium, followed by proteinase treatment with accutase (Sigma-Aldrich cat. no. A6964). Detached cells were washed and resuspended in assay buffer (1×HBSS; 20 mM HEPES, 0.1% BSA, 2 mM IBMX) and cellular density determined. They were then diluted to 4×10^5cells/mL and 25 μL-aliquots dispensed into the wells of 96-well plates. For measurement, 25 μL of test compound in assay buffer was added to the wells, followed by incubation for 30 minutes at room temperature.

[3] = test system: MAP kinase ERK1/2; assay: ERK1/2 phosphorylation In-Cell Western (pERK ICW) in CHO cells overexpressing human FGFR1c plus KLB; format: cell-based; conditions: ERK1/2 phosphorylation Thr202/Tyr204
Procedure: FIG. 1C-1 to FIG. 1C-3) Dose dependent in vitro activation of the downstream effector ERK. Activation of the downstream effector of FGF signaling, the MAP kinase ERK1/2, was determined via In-Cell Western assay in CHO cells stably overexpressing human FGFR1c and KLB using an antibody directed against the ERK1/2 phosphorylated amino acid residues threonine 202 and tyrosine 204.
as §1
To assess the activation of a downstream effector of FGFR signalling by FGF-21-GLP-1RA fusion proteins the phosphorylation of MAP kinases ERK1/2 were analysed. The same ICW protocol as described above was used, simply the primary antibody was replaced by anti-phospho-p44/42 MAPK (Erk1/2) (Thr202/Tyr204) (New England Biolabs, Frankfurt, Germany). FIG. 1C-1 to FIG. 1C-3 show the results from ICW with CHO cells overexpressing human FGFR1c plus KLB and detection of ERK1/2 phosphorylation.

[4] = test system: ob/ob mice; assay: Treatment of ob/ob mice by chronic infusion (Alzet pumps, 11 days); format: in vivo, mouse; conditions: for Relative body weight change (%): after 11 days of treatment
Procedure: Female ob/ob mice (B6.V-LEP OB/J, age of 9 weeks) were obtained from Charles Rivers Laboratories (Sulzfeld, Germany). Mice were randomly assigned to treatment or vehicle groups, and the randomization was stratified by body weight and fed blood glucose levels. The animals were housed in groups of 8 at 23° C. and on a 12 h light-dark cycle. All experimental procedures were conducted according to German Animal Protection Law. Mice were fed ad libitum with standard rodent chow during the drug treatment periods. Body weight and food intake was recorded every other day throughout the study.
Ob/ob mice were treated with vehicle (PBS), 0.03, 0.1, 0.3, and 1.0 mg·kg^−1·day^−1 recombinant Exenatide-IEGR-FGF-21 (SEQ ID NO: 15) via chronic infusion by Alzet pumps (type 1004) over 11 days.
At the end of the study liver weight and liver triglycerides were analysed.
Two days before pump implantation and after 11 days of treatment blood glucose was measured by tail tip bleeding under fed conditions. As shown in FIGS. 10 and 11 blood glucose levels of the chronic infused mice were decreased dose-dependently with highest effect at the dosage of 1.0 mg·kg^−1·day^−1 recombinant fusion protein.

[5] = 0.03, 0.1, 0.3 and 1 mg/kg, end of study

T1 sequence (P43220 24-463): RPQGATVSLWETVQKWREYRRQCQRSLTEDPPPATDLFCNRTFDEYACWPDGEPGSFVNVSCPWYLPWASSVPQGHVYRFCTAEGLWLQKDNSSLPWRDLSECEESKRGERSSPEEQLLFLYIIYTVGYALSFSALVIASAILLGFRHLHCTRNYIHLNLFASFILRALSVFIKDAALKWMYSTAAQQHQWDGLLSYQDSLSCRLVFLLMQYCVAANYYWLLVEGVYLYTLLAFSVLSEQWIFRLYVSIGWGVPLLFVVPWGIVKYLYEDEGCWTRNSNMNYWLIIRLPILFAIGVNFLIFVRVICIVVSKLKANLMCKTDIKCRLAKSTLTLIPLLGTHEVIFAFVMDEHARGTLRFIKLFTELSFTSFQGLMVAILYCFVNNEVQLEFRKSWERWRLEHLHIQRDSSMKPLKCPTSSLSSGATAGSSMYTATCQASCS
human FGFR1c plus KLB, sequence (P11362 22-822): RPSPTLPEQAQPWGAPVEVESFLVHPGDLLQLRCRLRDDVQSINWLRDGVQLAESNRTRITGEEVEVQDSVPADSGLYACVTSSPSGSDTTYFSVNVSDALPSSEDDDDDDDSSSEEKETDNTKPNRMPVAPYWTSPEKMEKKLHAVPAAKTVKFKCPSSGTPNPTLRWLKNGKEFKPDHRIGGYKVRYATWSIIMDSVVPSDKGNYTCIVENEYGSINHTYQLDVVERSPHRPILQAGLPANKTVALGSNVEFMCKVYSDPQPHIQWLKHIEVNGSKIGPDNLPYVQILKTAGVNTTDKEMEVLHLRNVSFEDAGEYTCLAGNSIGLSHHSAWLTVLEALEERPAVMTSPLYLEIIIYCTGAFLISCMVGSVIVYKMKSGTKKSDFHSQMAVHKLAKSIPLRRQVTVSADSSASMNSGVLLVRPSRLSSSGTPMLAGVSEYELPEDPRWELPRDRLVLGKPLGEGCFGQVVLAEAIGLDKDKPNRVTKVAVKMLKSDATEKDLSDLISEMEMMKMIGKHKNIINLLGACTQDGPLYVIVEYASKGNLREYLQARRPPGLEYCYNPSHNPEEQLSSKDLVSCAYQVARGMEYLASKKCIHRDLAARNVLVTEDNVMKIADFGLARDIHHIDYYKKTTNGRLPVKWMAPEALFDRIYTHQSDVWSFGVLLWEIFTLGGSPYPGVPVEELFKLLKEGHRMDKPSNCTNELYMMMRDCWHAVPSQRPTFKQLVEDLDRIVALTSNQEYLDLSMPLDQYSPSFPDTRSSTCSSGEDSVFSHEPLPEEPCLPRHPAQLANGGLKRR
human FGFR1c plus KLB, sequence (Q86Z14 whole entry): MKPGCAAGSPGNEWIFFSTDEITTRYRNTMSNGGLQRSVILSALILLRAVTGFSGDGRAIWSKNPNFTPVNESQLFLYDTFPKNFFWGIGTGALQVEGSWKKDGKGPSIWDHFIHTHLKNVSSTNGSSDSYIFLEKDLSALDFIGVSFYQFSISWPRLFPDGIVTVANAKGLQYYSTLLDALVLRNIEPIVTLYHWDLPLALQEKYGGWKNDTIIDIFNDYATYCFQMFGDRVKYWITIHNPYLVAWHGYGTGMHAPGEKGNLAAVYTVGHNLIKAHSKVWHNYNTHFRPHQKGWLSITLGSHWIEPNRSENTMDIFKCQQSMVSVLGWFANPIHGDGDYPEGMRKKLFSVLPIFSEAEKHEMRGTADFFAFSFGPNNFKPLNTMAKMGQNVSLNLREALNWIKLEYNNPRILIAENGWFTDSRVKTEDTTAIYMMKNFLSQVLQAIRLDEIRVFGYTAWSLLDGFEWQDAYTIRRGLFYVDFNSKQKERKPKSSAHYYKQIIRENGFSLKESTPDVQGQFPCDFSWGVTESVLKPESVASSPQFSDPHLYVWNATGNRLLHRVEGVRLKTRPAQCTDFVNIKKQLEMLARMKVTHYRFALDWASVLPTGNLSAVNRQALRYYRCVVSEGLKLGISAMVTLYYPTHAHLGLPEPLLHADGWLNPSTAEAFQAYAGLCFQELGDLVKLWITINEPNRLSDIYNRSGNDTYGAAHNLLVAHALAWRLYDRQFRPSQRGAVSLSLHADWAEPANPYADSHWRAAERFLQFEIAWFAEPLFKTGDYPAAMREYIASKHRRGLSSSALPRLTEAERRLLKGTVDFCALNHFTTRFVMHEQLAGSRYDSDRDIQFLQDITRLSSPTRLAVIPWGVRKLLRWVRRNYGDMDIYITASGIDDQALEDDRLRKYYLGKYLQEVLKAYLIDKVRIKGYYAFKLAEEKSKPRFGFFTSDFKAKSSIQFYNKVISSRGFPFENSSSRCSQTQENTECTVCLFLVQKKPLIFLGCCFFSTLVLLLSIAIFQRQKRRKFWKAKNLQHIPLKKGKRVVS

| Substance | EC50 [1] [nM] | EC50 [2] [pM] | EC50 [3] [nM] | also measured |
| --- | --- | --- | --- | --- |
| Exenatide-APSCPAS-FGF21: fusion protein, linker based on PAS sequence plus Cystein for potential modification | 193 | 13.2 | 10.9 |  |
| Lixisenatide-IEGR-FGF21: fusion protein lixisenatide - Factor Xa cleavage site - FGF21 | 3.1 | 3.8 | 1 |  |
| Exenatide-GSGS-FGF21: fusion protein, GSGS = linker | 19.1 | 7.2 | 0.53 |  |
| Exenatide-GG-ABD-GG-FGF21: fusion protein, GG-ABD-GG = linker |  | 15.9 |  |  |
| Exenatide-GGGRR-FGF21: fusion protein, GGGRR protease cleavage site linker | 7.4 | 7.7 | 0.98 |  |
| Exenatide-FGF21-GG-ABD: fusion protein, GG-ABD = linker (albumin binding domain) | 79.8 | 7.96 | 89.9 |  |
| Exenatide-IEGQ-FGF21: fusion protein, IEGQ = linker (mutated/defect Factor Xa cleavage site) | 35.4 | 6.1 | 0.79 |  |
| Exenatide-IEGR-FGF21: fusion protein exenatide - Factor Xa cleavage site IEGR linker - FGF21 | 1.9 | 4 | 0.4 | Relative body weight change (%) ([4]; 0.03 mg/kg, chronic infusion): +6.6%; Relative body weight change (%) ([4]; 0.1 mg/kg, chronic infusion): +1.1%; Relative body weight change (%) ([4]; 0.3 mg/kg, chronic infusion): −2.6%; Relative body weight change (%) ([4]; 1 mg/kg, chronic infusion): −17.8%; highest reduction of body weight ([4]; 1 mg/kg, chronic infusion): 17.8%; body weight ([4]; 0.03, 0.1, 0.3 and 1 mg/kg, chronic infusion): dose dependent decrease; liver triglycerides [4, 5]: dose dependent decrease; total liver weight [4, 5]: dose dependent decrease; blood glucose ([4]; 0.03, 0.1, 0.3 and 1 mg/kg, fed, after 11 days of chronic infusion): dose dependent decrease |
| Exenatide-GGGGS-His-GGGGS-ABD-GG-FGF21: fusion protein, GGGGS-His-GGGGS-ABD-GG = linker |  | 2.54 | 4.97 |  |
| Exenatide-APSPAS-FGF21: fusion protein, linker based on PAS sequence | 4.1 | 3 | 0.27 |  |
| Exenatide-FGF21-GG-ABD-GG-FGF21: fusion protein, GG-ABD-GG = linker | 37.3 | 21.6 | 4.34 |  |
| Lixisenatide-FGF21: fusion protein of lixisenatide and FGF21 without linker | 3.7 | 3.7 | 0.24 |  |
| Exenatide-FGF21: fusion protein of exenatide and human FGF-21 His29-Ser209 without linker | 1.3 | 4.1 | 0.51 |  |

From US20190085043A1, “FUSION PROTEINS FOR TREATING A METABOLIC SYNDROME” (SANOFI, priority 2012, published 2019)
